In publication PMC9035890:

Columns and labels:
[1] = molecular target: Recombinant biotinylated protein L (Thermo Fisher 21189) (UniProt Q51918); assay: SPR; Biacore T200, 25°C; biotinylated ligand captured on a CAP chip through the Biotin CAPture reagent; NISTmAb sample as analyte at 200 nmol/L in PBS-P+ pH 7.4, 50 μL/min, 100 s association, 300 s dissociation; response at the end of the association phase divided by that of NISTmAb Bex, mean of three independent experiments
[2] = molecular target: Recombinant biotinylated protein A (Thermo Fisher 29989) (UniProt P38507); assay: as above

NISTmAb oxidised in solution, 0.3% H2O2, 30 min (0.3%Nox0.5hr) (antibody)
binding relative to NISTmAb Bex [1]: 99.3% | binding relative to NISTmAb Bex [2]: 94.7%

NISTmAb oxidised in solution, 0.3% H2O2, 32 h (0.3%Nox32hr) (antibody)
binding relative to NISTmAb Bex [1]: 92.6% | binding relative to NISTmAb Bex [2]: 38.5%
